Data taken from article PMC5615076, “Prolonged seizure activity causes caspase dependent cleavage and dysfunction of G-protein activated inwardly rectifying potassium channels” (Scientific Reports, 2017).

Biological target: T1, Gβ1γ2 tagged with yellow fluorescent proteins (YFP-Gβ1 and YFP-Gγ2) (UniProt P62873 1-340; P59768 1-71)
T1 construct: G protein subunit beta-1 (Gβ1), from plasmid pcDNA3.1-YFP-G-protein Gβ1 (gift of N. Gautam); G protein subunit gamma-2 (Gγ2), from plasmid pcDNA3.1-YFP-G-protein-Gγ2 (gift of N. Gautam); Both chains co-expressed and precipitated together with anti-GFP antibodies; also called Gβγ; source: HEK293T, transfected (pcDNA3.1-YFP-G-protein Gβ1 and pcDNA3.1-YFP-G-protein-Gγ2), in lysate
Assay: co-IP; HEK293T cells co-transfected with YFP-Gβ1, YFP-Gγ2 and GIRK2A WT or Y353X (doubled plasmid for Y353X); IP 24 h after transfection with mouse anti-GFP antibodies and Protein A/G agarose; blot with anti-GIRK2 N-terminal antibodies; band ratio GIRK2A/YFP-Gβ1 normalised to GIRK2A WT
Conditions: partners not purified

B1: GIRK2A-Y353X (domain or fragment)
chain: MTMAKLTESMTNVLEGDSMDQDVESPVAIHQPKLPKQARDDLPRHISRDRTKRKIQRYVRKDGKCNVHHGNVRETYRYLTDIFTTLVDLKWRFNLLIFVMVYTVTWLFFGMIWWLIAYIRGDMDHIEDPSWTPCVTNLNGFVSAFLFSIETETTIGYGYRVITDKCPEGIILLLIQSVLGSIVNAFMVGCMFVKISQPKKRAETLVFSTHAVISMRDGKLCLMFRVGDLRNSHIVEASIRAKLIKSKQTSEGEFIPLNQSDINVGYYTGDDRLFLVSPLIISHEINQQSPFWEISKAQLPKEELEIVVILEGIVEATGMTCQARSSYITSEILWGYRFTPVLTMEDGFYEVD
notes: GIRK2A (Kir3.2, cDNA NM_010606.2) with Y353 mutated to a stop codon, so the chain ends at D352 of the 349YEVD352 motif; mimics GIRK2A cleaved by caspase-3; Untagged; made by QuikChange mutagenesis of pcDNA3-GIRK2A; also called GIRK2-Y353X; truncated GIRK2A-Y353X; source: HEK293T, transfected (FuGENE6, pcDNA3-GIRK2A Y353X, doubled amount of plasmid), in lysate
coimmunoprecipitation, % of wild-type GIRK2A: 50 % of wild-type GIRK2A
